# According to the nanobody polyreactivity screen of Harvey et al. (2022):
# Assay: yeast display, Sf9 membrane polyspecificity reagent, FACS + sequencing; frameworks hold sequencing errors
# Outline: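 After 36–48 hours of galactose induction, yeast (Saccharomyces cerevisiae BJ5465) displaying a synthetic nanobody library were stained at 4 °C for 1 hour with 10% biotinylated, detergent-solubilized Sf9 membrane reagent. Streptavidin microbeads enriched the stained cells before FACS sorting into low and high (top ~1%) gates on anti-HA and streptavidin fluorescence. Each clone's polyreactivity label reflects its gate of origin.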
row,Sequence,polyreactivity (PSR sort gate)
1,QDQLVESVGCLVQAGGSLRLSCAATGRIFQSYAMGWYRQAPGKERELVAGIRAGGGRTYYADSVKGRFTISRDIAKNTVYVQMNSLKPEDTAVDYCAARFVGSFYAPFDYWGQGTLVTVSS,low polyreactivity
2,QDQLVESVGGLVQAGGSLRLSCAASGITFRYYTMGWYRQAPGKESELVAVISWSGGSTYYADSVKGRFTISRDNAKNTVYLQMNSLKPEDTAVYYCAAVRRISRYDYWGQGTQVTVSS,high polyreactivity
3,QDQLVESVGGLVQAGGSLRLSCAASGTISYAGPMGWYRKAPGKEREFVAGIGVCSNTNYADSVKGRYTIIRDNAKNTVYLQMNSLIPEDTAVYYCAVGGYAPLGRPYWGQGTQVTVSS,low polyreactivity
4,QDQLVESVGGVVQAGGSLRLSGAASGIIFVAYAMGWYRQAPGKERELVASITYSGGSTNYADSVKGRFTISRDNAKNTVYLQLNSLQPEETAVDYCARDRDPVYASVLWDDYGYWGQGTQVTVSS,low polyreactivity
5,QDQLVETGGGLVQAGGSLRLSCAAYGSIFDLNAMGWYRQAPGKESELVAAITYSSGRTYYADSVKGRFTISRDNAKNTVYLQMNSLKPEDTAVYYCNADLWFHYYRYNYWGQGTQVTVSS,high polyreactivity
6,QEQLEESGGGLVQAGGRLRLSCAASGSIFTTYTMGWYRQAPGKERELVAAIDYSGDSTYYADSGKGRFTISRDTAKNTVYLQMNSLKPEDTAVYYCNAVSFSAYVPYGYWGQGTQVTVSS,low polyreactivity
7,QEQLEESGGGLVQAGGRLRLSCAASGSTFGINARGWYRQAPGKEREVVASITRRGGSTYYADSVKGRFTISRDNAKNTVYLQMNSLKPEDTAVYYCNKTYRYGTPLYYYWGQGTQVTVSS,high polyreactivity
8,QEQLHESGGGLVQAGGSLRLSCAASRTISVTYNMGWYRQATGKEREFVAGNSTGDTTNYADSVKGRFTISRDNAKNTVYLQMNSLKPEDTAVNYCSAHIYRQDHFYYWGQGTQVTVSS,low polyreactivity
9,QEQLQERGGGLVQAGGSLRLSCAASGNISVTGFMGWYRQAPGKERELVASIGIGGTTYYADSVKGRFSMSRDNAKNTVYLKMNRLKPEDTAVYYCAVRWYDHVSRRGIGYYWGKGTQVTVSS,low polyreactivity
10,QEQLQESGDGLVQAGGSLRLSSAASGTIFSDYGMGGYRQAPGKERELLAGISDGCNTNYTDSVKGRFTISRDNAHRVSADEQPETGGYRGVLLRGSERWLLFYVYWGQGTQGTVSS,high polyreactivity
11,QEQLQESGGGLVQAGCSLRLSCAANGYIFSVEDMGRYCLAPGKEREFVATINYDTSTYYADSVKGSFTISRDNAKKTVYLQMNSLKPEDTEVYYCEAYFYAYRSPGYWGQGTQVTVSS,high polyreactivity
12,QEQLQESGGGLVQAGGSLRLSCAAIGSNIPTIYMGWYRHAPGKEREFVAAIGKGCSTYYADSVKGRFTISRDNALKTVYLQMNSLIPEDNAVYYCAFDPYASQDLAYWGQGTLVTVSS,low polyreactivity
13,QEQLQESGGGLVQAGGSLRLSCAASGIIFDWFFMGWYRQAPGREREFVAAITYGATTNYADSVKGRFTISRDNGKNTVYLQMNSLKPEDSAVYYCAAQHRGVQVTFGEYDYWGQGTQVTVSS,low polyreactivity
14,QEQLQESGGGQVQAGGSLLLSCAASGNIIRYYYMGWYRQAPGKERELVAAITYGTSTNYADSVKGRFTISRDNATNTEFLQMNSLKPEDTAVYYCAVDVNYGDPIDNWGQGTQVTVSS,high polyreactivity
15,QEQLQESGGGQVQAGGSLLLSCAASGNIIRYYYMGWYRQAPGKERELVAAITYGTSTNYADSVKGRFTISRDNEKNTVYLQMNSLKPEDSAVYYFAVVVNYGDPLVNWGQGTQVTVSS,high polyreactivity
16,QEQLQESGGGQVQDGGSLRMSCAASGSISYASGLCWYSQEQGKEREFVASIDPGAITNYADSVKGRFTISHDNAKNTVYLQMNRLKPEDTAVYYCAADGHGGYGYWGQGTQVTVSS,high polyreactivity
17,QEQLQESGVGQVQAGGSLLLSCAASGNIIRYYYMGWYRQAPGKERELVAAITYGTSTNYADSVKGRFTISRDNAKNSVYLQINSLKPEDTAVYYCAATAYWFYAKYYYWGQGTQVTVSS,high polyreactivity
